Test results reported in article PMC3040192.

Assays:
Assay in all cases: mass spectrometry
Conditions in all cases: 37 °C (72 h incubation), 50 mM NaCl plus 50 mM buffer, 50 mM MES (pH 5.0-7.5) or 50 mM HEPES (pH 8.0-9.0), folded
His45 = His45 (UniProt position 45, VIMGRHTWESI)
His114 = His114 (UniProt position 114, KLYLTHIDAEV)
His149 = His149 (UniProt position 149, DAQNSHSYCFE)
His141 = His141 (UniProt position 141, VFSEFHDADAQ)
His124 = His124 (UniProt position 124, VEGDTHFPDYE)
[1] = Binary complex with methotrexate (DHFR-MTX; five-fold molar excess of MTX added during preparation)
[2] = Ternary complex with folate and NADP+ (DHFR-folate-NADP+; five-fold molar excess of each ligand added during preparation)
[3] = Ternary complex with methotrexate and NADPH (DHFR-MTX-NADPH; five-fold molar excess of each ligand added during preparation)

Substance: Dihydrofolate reductase (DHFR) (Escherichia coli)
- pKa (His45; [1]): 7.15 (±0.04)
- pKa (His45; [2]): 7.30 (±0.07)
- pKa (His45; [3]): 7.43 (±0.03)
- pKa (His45; apo-DHFR (no ligand)): 6.99 (±0.07)
- pKa (His114; [2]): 7.17 (±0.16)
- pKa (His114; [3]): 6.99 (±0.10)
- pKa (His114; apo-DHFR (no ligand)): 6.84 (±0.20)
- pKa (His149; [1]): 6.13 (±0.13)
- pKa (His149; [2]): 6.84 (±0.17)
- pKa (His149; [3]): 6.17 (±0.10)
- pKa (His149; apo-DHFR (no ligand)): 6.51 (±0.04)
- pKa (His141; [1]): 8.12 (±0.14)
- pKa (His141; [2]): 8.14 (±0.11)
- pKa (His141; [3]): 8.29 (±0.10)
- pKa (His141; apo-DHFR (no ligand)): 8.04 (±0.08)
- pKa (His124; [1]): 7.02 (±0.06)
- pKa (His124; [2]): 7.61 (±0.19)
- pKa (His124; [3]): 7.17 (±0.20)
- pKa (His124; apo-DHFR (no ligand)): 7.60 (±0.03)
